In publication PMC12102759 (2025):

B1: CBL peptide 538-553 (E3 ubiquitin-protein ligase CBL), 16-mer library wild type / YES SH3 (YES1 SH3 domain, residues 90-152) (parent complex)
chain 1: TLRDLPPPPPPDRPYS
chain 2: not shown
B2: PEX5 peptide 240-255 (Peroxisomal targeting signal 1 receptor), 16-mer library wild type / PEX14 Pex14 (PEX14 PEX14, residues 16-84) (parent complex)
chain 1: AEQWAAEFIQQQGTSD
chain 2: TPGSENVLPREPLIATAVKFLQNSRVRQSPLATRRAFLKKKGLTDEEIDMAFQQSGTAADEPSSLGPAT
B3: PAIP1 peptide 124-139 (Polyadenylate-binding protein-interacting protein 1), 16-mer library wild type / PABPC1 PABC (PABPC1 PABC domain, residues 544-623) (parent complex)
chain 1: LMSKLSVNAPEFYPSG
chain 2: PLTASMLASAPPQEQKQMLGERLFPLIQAMHPTLAGKITGMLLEIDNSELLHMLESPESLRSKVDEAVAVLQAHQAKEAA

Variants of: B1
Experiment: proteomic peptide phage display deep mutational scan (ProP-PD DMS): M13 P8 16-mer library selected against immobilised GST-tagged bait for four days (rounds), NGS of the eluted pools per day and pseudo-replica; bait immobilised on MaxiSorp plates (10 µg), library pre-cleared on GST, 2 h binding at 4 °C, five washes; one round per day, days 1-4; value from days 2 and 3
For chain 1 R13L, the screen value was 0.00161 average fractional NGS count over selection days 2 and 3 (reads of this peptide / all reads for the bait, averaged over ….
For chain 1 P7Y, the screen value was 0.000234 average fractional NGS count over selection days 2 and 3 (reads of this peptide / all reads for the bait, averaged over ….
For chain 1 D4N, the screen value was 0.00132 average fractional NGS count over selection days 2 and 3 (reads of this peptide / all reads for the bait, averaged over ….
For chain 1 Y15E, the screen value was 9.17e-05 average fractional NGS count over selection days 2 and 3 (reads of this peptide / all reads for the bait, averaged over ….
chain 1 Y15H was tested, and the screen value was 0.0004 average fractional NGS count over selection days 2 and 3 (reads of this peptide / all reads for the bait, averaged over ….
For chain 1 Y15G, the screen value was 0.000388 average fractional NGS count over selection days 2 and 3 (reads of this peptide / all reads for the bait, averaged over ….
In the case of chain 1 Y15A, the screen value is reported as 0.00482 average fractional NGS count over selection days 2 and 3 (reads of this peptide / all reads for the bait, averaged over ….
In the case of chain 1 L5Q, the screen value is reported as 0.000137 average fractional NGS count over selection days 2 and 3 (reads of this peptide / all reads for the bait, averaged over ….
With chain 1 R3Y the screen value was 0.000386 average fractional NGS count over selection days 2 and 3 (reads of this peptide / all reads for the bait, averaged over ….
For chain 1 P10V, the screen value was 0.00306 average fractional NGS count over selection days 2 and 3 (reads of this peptide / all reads for the bait, averaged over ….
In the case of chain 1 P6M, the screen value is reported as 0.000156 average fractional NGS count over selection days 2 and 3 (reads of this peptide / all reads for the bait, averaged over ….
For chain 1 P8A, the screen value was 9.08e-05 average fractional NGS count over selection days 2 and 3 (reads of this peptide / all reads for the bait, averaged over ….
In the case of chain 1 D12S, the screen value is reported as 0.000329 average fractional NGS count over selection days 2 and 3 (reads of this peptide / all reads for the bait, averaged over ….
With chain 1 S16W the screen value was 0.00897 average fractional NGS count over selection days 2 and 3 (reads of this peptide / all reads for the bait, averaged over ….
chain 1 S16T was tested, and the screen value was 0.000743 average fractional NGS count over selection days 2 and 3 (reads of this peptide / all reads for the bait, averaged over ….

Variants of: B2
Experiment: as above
chain 1 Q10I was tested, and the screen value was 0.00252 average fractional NGS count over selection days 2 and 3 (reads of this peptide / all reads for the bait, averaged over ….
With chain 1 Q12M the screen value was 0.000477 average fractional NGS count over selection days 2 and 3 (reads of this peptide / all reads for the bait, averaged over ….
For chain 1 I9F, the screen value was 0.00108 average fractional NGS count over selection days 2 and 3 (reads of this peptide / all reads for the bait, averaged over ….
chain 1 Q3D was tested, and the screen value was 0.000539 average fractional NGS count over selection days 2 and 3 (reads of this peptide / all reads for the bait, averaged over ….
chain 1 Q3L was tested, and the screen value was 0.00235 average fractional NGS count over selection days 2 and 3 (reads of this peptide / all reads for the bait, averaged over ….

Variants of: B3
Experiment: as above
In the case of chain 1 S6T, the screen value is reported as 0.0012 average fractional NGS count over selection days 2 and 3 (reads of this peptide / all reads for the bait, averaged over ….
With chain 1 S6W the screen value was 0.000475 average fractional NGS count over selection days 2 and 3 (reads of this peptide / all reads for the bait, averaged over ….
In the case of chain 1 S6N, the screen value is reported as 0.000518 average fractional NGS count over selection days 2 and 3 (reads of this peptide / all reads for the bait, averaged over ….
For chain 1 Y13D, the screen value was 0.00104 average fractional NGS count over selection days 2 and 3 (reads of this peptide / all reads for the bait, averaged over ….
In the case of chain 1 Y13L, the screen value is reported as 0.00572 average fractional NGS count over selection days 2 and 3 (reads of this peptide / all reads for the bait, averaged over ….
In the case of chain 1 Y13K, the screen value is reported as 0.00389 average fractional NGS count over selection days 2 and 3 (reads of this peptide / all reads for the bait, averaged over ….
In the case of chain 1 Y13T, the screen value is reported as 0.00149 average fractional NGS count over selection days 2 and 3 (reads of this peptide / all reads for the bait, averaged over ….
With chain 1 Y13W the screen value was 0.00367 average fractional NGS count over selection days 2 and 3 (reads of this peptide / all reads for the bait, averaged over ….
chain 1 Y13M was tested, and the screen value was 0.000346 average fractional NGS count over selection days 2 and 3 (reads of this peptide / all reads for the bait, averaged over ….
In the case of chain 1 Y13S, the screen value is reported as 0.000669 average fractional NGS count over selection days 2 and 3 (reads of this peptide / all reads for the bait, averaged over ….
chain 1 Y13R was tested, and the screen value was 0.000336 average fractional NGS count over selection days 2 and 3 (reads of this peptide / all reads for the bait, averaged over ….
For chain 1 Y13H, the screen value was 0.000948 average fractional NGS count over selection days 2 and 3 (reads of this peptide / all reads for the bait, averaged over ….
With chain 1 Y13V the screen value was 0.000146 average fractional NGS count over selection days 2 and 3 (reads of this peptide / all reads for the bait, averaged over ….
With chain 1 Y13E the screen value was 0.00175 average fractional NGS count over selection days 2 and 3 (reads of this peptide / all reads for the bait, averaged over ….
With chain 1 Y13I the screen value was 0.021 average fractional NGS count over selection days 2 and 3 (reads of this peptide / all reads for the bait, averaged over ….
In the case of chain 1 Y13A, the screen value is reported as 0.001 average fractional NGS count over selection days 2 and 3 (reads of this peptide / all reads for the bait, averaged over ….
In the case of chain 1 Y13Q, the screen value is reported as 0.00152 average fractional NGS count over selection days 2 and 3 (reads of this peptide / all reads for the bait, averaged over ….
For chain 1 G16M, the screen value was 0.00176 average fractional NGS count over selection days 2 and 3 (reads of this peptide / all reads for the bait, averaged over ….
With chain 1 G16W the screen value was 0.000405 average fractional NGS count over selection days 2 and 3 (reads of this peptide / all reads for the bait, averaged over ….
With chain 1 G16S the screen value was 0.0008 average fractional NGS count over selection days 2 and 3 (reads of this peptide / all reads for the bait, averaged over ….
chain 1 G16D was tested, and the screen value was 0.000205 average fractional NGS count over selection days 2 and 3 (reads of this peptide / all reads for the bait, averaged over ….
With chain 1 G16R the screen value was 0.000806 average fractional NGS count over selection days 2 and 3 (reads of this peptide / all reads for the bait, averaged over ….
In the case of chain 1 G16E, the screen value is reported as 0.000703 average fractional NGS count over selection days 2 and 3 (reads of this peptide / all reads for the bait, averaged over ….
With chain 1 G16I the screen value was 0.00186 average fractional NGS count over selection days 2 and 3 (reads of this peptide / all reads for the bait, averaged over ….
In the case of chain 1 G16H, the screen value is reported as 0.00575 average fractional NGS count over selection days 2 and 3 (reads of this peptide / all reads for the bait, averaged over ….
In the case of chain 1 G16K, the screen value is reported as 0.000565 average fractional NGS count over selection days 2 and 3 (reads of this peptide / all reads for the bait, averaged over ….
For chain 1 G16N, the screen value was 0.000134 average fractional NGS count over selection days 2 and 3 (reads of this peptide / all reads for the bait, averaged over ….
In the case of chain 1 G16T, the screen value is reported as 0.000984 average fractional NGS count over selection days 2 and 3 (reads of this peptide / all reads for the bait, averaged over ….
For chain 1 G16V, the screen value was 0.0229 average fractional NGS count over selection days 2 and 3 (reads of this peptide / all reads for the bait, averaged over ….
For chain 1 G16F, the screen value was 0.00158 average fractional NGS count over selection days 2 and 3 (reads of this peptide / all reads for the bait, averaged over ….
With chain 1 G16Q the screen value was 0.00204 average fractional NGS count over selection days 2 and 3 (reads of this peptide / all reads for the bait, averaged over ….
With chain 1 G16Y the screen value was 0.00314 average fractional NGS count over selection days 2 and 3 (reads of this peptide / all reads for the bait, averaged over ….
For chain 1 A9S, the screen value was 0.000704 average fractional NGS count over selection days 2 and 3 (reads of this peptide / all reads for the bait, averaged over ….
In the case of chain 1 S15A, the screen value is reported as 0.00144 average fractional NGS count over selection days 2 and 3 (reads of this peptide / all reads for the bait, averaged over ….
In the case of chain 1 S15Q, the screen value is reported as 0.000451 average fractional NGS count over selection days 2 and 3 (reads of this peptide / all reads for the bait, averaged over ….
With chain 1 S15I the screen value was 0.000837 average fractional NGS count over selection days 2 and 3 (reads of this peptide / all reads for the bait, averaged over ….
chain 1 S15R was tested, and the screen value was 0.00163 average fractional NGS count over selection days 2 and 3 (reads of this peptide / all reads for the bait, averaged over ….
For chain 1 S15T, the screen value was 0.000722 average fractional NGS count over selection days 2 and 3 (reads of this peptide / all reads for the bait, averaged over ….
For chain 1 S15W, the screen value was 0.000557 average fractional NGS count over selection days 2 and 3 (reads of this peptide / all reads for the bait, averaged over ….
With chain 1 S15H the screen value was 0.0055 average fractional NGS count over selection days 2 and 3 (reads of this peptide / all reads for the bait, averaged over ….
chain 1 S15G was tested, and the screen value was 0.00184 average fractional NGS count over selection days 2 and 3 (reads of this peptide / all reads for the bait, averaged over ….
With chain 1 S15M the screen value was 0.00153 average fractional NGS count over selection days 2 and 3 (reads of this peptide / all reads for the bait, averaged over ….
In the case of chain 1 S15Y, the screen value is reported as 0.00169 average fractional NGS count over selection days 2 and 3 (reads of this peptide / all reads for the bait, averaged over ….
In the case of chain 1 S15K, the screen value is reported as 0.000858 average fractional NGS count over selection days 2 and 3 (reads of this peptide / all reads for the bait, averaged over ….
In the case of chain 1 S15V, the screen value is reported as 0.00767 average fractional NGS count over selection days 2 and 3 (reads of this peptide / all reads for the bait, averaged over ….
chain 1 S15D was tested, and the screen value was 0.00256 average fractional NGS count over selection days 2 and 3 (reads of this peptide / all reads for the bait, averaged over ….
chain 1 S15E was tested, and the screen value was 0.0098 average fractional NGS count over selection days 2 and 3 (reads of this peptide / all reads for the bait, averaged over ….
For chain 1 S15F, the screen value was 0.00282 average fractional NGS count over selection days 2 and 3 (reads of this peptide / all reads for the bait, averaged over ….
For chain 1 S15P, the screen value was 0.000374 average fractional NGS count over selection days 2 and 3 (reads of this peptide / all reads for the bait, averaged over ….
In the case of chain 1 M2L, the screen value is reported as 0.000374 average fractional NGS count over selection days 2 and 3 (reads of this peptide / all reads for the bait, averaged over ….
With chain 1 M2V the screen value was 0.000531 average fractional NGS count over selection days 2 and 3 (reads of this peptide / all reads for the bait, averaged over ….
In the case of chain 1 M2N, the screen value is reported as 0.00156 average fractional NGS count over selection days 2 and 3 (reads of this peptide / all reads for the bait, averaged over ….
chain 1 M2G was tested, and the screen value was 0.00279 average fractional NGS count over selection days 2 and 3 (reads of this peptide / all reads for the bait, averaged over ….
With chain 1 M2K the screen value was 0.000358 average fractional NGS count over selection days 2 and 3 (reads of this peptide / all reads for the bait, averaged over ….
In the case of chain 1 M2E, the screen value is reported as 0.00221 average fractional NGS count over selection days 2 and 3 (reads of this peptide / all reads for the bait, averaged over ….
